Results reported in patent publication US7115410 (ELAN PHARMACEUTICALS, dated 2006).
Square brackets hold non-standard residues; d marks the D form. Sta = CC(C)C[C@H](N)[C@@H](O)CC(=O)O

Experiments:
[1] = biological target: T1, β-secretase 46-452 (human, UniProt P56817 46-452); test: binding to P10-P4′staD→V affinity matrix
T1 construct: C-terminally truncated form lacking the transmembrane region

[2] = biological target: T2, recombinant β-secretase from 293T cells, minor form starting at Thr-22 (human, UniProt P56817 22-501); test: N-terminal sequencing of fractions from P10-P4′staD→V Sepharose, 293T cells
T2 construct: C-terminus not determined
T2 sequence (P56817 22-501): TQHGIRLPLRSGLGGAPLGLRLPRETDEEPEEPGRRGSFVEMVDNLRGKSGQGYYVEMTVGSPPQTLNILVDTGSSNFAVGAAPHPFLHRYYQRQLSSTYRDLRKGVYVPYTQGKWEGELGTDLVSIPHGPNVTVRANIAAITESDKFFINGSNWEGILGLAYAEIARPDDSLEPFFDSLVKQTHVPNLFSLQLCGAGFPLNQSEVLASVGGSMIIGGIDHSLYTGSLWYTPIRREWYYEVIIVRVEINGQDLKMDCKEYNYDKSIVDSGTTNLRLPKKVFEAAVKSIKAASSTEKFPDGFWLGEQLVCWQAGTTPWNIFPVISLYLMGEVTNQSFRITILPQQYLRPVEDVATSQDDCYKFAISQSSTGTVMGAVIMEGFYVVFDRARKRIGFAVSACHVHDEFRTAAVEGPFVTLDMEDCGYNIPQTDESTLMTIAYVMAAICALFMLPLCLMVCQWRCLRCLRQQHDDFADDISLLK
Method: (§1) The cell pellet was resuspended by homogenizing for 30 seconds using a handheld homogenizer (0.5 ml/pellet of approximately 10^6 cells in extraction buffer consisting of 20 mM TRIS buffer, pH 7.5, 2 mM EDTA, 0.2% Triton X-100, plus protease inhibitors: 5 μg/ml E-64, 10 μg/ml pepstatin, 1 mM PMSF), centrifuged as maximum speed in a microfuge (40 minutes at 4 degrees C.). Pellets were suspended in original volume of extraction buffer, then stirred at 1 hour at 4 degrees C. with rotation, and centrifuted again in a microfuge at maximum speed for 40 minutes. The resulting supernatant was saved as the "extract." The extract was then diluted with 20 mm sodium acetate, pH 5.0, 2 mM EDTA and 0.2% Triton X-100 (SP buffer A), and 5 M NaCl was added to a final concentration of 60 mM NaCl. The pH of the solution was then adjusted to pH 5.0 with glacial acetic acid diluted 1:10 in water. Aliquots were saved ("SP load"). The SP load was passed through a 1 ml SP HiTrap column which was pre-washed with 5 ml SP buffer A, 5 ml SP buffer B (SP buffer A with 1 M NaCl) and 10 ml SP buffer A. An additional 2 ml of 5% SP buffer B was passed through the column to dissplace any remaining sample from the column. The pH of the SP flow-through was adjusted to pH 4.5 with 10× diluted acetic acid. This flow-through was then applied to a P10-P4'staD→V-Sepharose Affinity column, as described below. […]

[3] = biological target: T3, recombinant β-secretase from 293T cells, minor form starting at Met-63 (human, UniProt P56817 63-501); test: N-terminal sequencing of fractions from P10-P4′(statine)D→V Sepharose, 293T cells
T3 construct: C-terminus not determined
T3 sequence (P56817 63-501): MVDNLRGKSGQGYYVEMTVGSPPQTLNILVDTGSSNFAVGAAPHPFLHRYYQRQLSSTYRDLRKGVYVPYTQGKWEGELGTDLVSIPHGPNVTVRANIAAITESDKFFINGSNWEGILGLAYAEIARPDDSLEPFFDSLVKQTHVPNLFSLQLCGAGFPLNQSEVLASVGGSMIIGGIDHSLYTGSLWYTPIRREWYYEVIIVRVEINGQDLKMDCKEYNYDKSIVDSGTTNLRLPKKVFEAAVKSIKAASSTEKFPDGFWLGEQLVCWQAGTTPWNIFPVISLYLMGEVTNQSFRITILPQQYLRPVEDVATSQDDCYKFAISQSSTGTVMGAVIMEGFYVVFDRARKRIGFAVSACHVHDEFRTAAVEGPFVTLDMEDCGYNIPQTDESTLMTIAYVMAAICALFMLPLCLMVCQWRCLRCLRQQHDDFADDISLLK
Method: as §1

[4] = biological target: T4, recombinant β-secretase from Cos A2 cells, major form resulting from Gly-58 cleavage (human, UniProt P56817 58-501); test: N-terminal sequencing of fractions from P10-P4′(statine)D→V Sepharose, Cos A2 cells
T4 construct: C-terminus not determined
T4 sequence (P56817 58-501): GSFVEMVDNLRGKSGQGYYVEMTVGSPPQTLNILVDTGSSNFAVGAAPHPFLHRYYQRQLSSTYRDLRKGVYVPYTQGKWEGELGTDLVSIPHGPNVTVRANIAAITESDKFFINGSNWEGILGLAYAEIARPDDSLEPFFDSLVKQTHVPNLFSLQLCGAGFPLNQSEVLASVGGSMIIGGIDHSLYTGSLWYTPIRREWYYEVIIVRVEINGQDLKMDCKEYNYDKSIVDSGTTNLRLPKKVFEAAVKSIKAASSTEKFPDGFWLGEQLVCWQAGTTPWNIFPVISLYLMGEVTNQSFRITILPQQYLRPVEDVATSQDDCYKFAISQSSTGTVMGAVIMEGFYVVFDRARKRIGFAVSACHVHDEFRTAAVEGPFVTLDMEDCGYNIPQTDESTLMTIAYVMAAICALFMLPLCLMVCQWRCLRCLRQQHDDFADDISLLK
Method: as §1

[5] = biological target: T5, recombinant β-secretase from 293T or Cos A2 cells transfected with the full-length construct, form with … (human, UniProt P56817 46-501); test: affinity chromatography on P10-P4′staD→V Sepharose, extracts of transfected 293T and COS A2 cells, pH 4.5
T5 construct: also called Recombinant, 293T; Recombinant, CosA2
T5 sequence (P56817 46-501): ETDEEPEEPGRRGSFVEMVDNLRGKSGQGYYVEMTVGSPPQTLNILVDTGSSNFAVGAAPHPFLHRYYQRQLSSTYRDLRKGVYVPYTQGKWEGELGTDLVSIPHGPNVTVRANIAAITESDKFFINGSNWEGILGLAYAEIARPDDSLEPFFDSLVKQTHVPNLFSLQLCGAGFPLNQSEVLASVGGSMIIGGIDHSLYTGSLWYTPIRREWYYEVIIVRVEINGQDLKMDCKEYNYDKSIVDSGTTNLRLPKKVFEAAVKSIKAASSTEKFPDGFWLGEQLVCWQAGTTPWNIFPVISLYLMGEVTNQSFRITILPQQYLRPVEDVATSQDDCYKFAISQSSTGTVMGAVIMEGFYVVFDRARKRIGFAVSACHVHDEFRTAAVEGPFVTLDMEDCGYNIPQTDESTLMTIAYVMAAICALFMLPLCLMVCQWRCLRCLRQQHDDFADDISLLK
Method: as §1

Measured: binding result

T1 sequence (P56817 46-452 limits assumed): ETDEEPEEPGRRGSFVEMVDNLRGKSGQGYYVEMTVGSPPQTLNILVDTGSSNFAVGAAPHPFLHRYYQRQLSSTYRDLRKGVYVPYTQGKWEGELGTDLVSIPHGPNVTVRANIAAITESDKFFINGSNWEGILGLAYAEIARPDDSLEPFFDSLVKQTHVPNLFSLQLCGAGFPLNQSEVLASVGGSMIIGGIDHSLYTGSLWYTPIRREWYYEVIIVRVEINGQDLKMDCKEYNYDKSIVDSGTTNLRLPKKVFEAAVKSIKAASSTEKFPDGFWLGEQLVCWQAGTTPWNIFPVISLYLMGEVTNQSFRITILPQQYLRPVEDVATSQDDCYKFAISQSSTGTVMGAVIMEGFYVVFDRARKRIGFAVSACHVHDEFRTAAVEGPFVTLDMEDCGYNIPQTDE

B1: P10-P4′staD→V (NH2-KTEEISEVN[sta]VAEF-COOH) (peptide)
peptide: H-KTEEISEVN[Sta]VAEF-OH
notes: Synthetic statine peptide derived from the APPsw cleavage site with D→V at P1′; also called P10-P4′(statine)D→V
binds: [1] | [2] | [3] | [4] | [5]
